In patent US20160185837A1 (AstraZeneca / MedImmune, published 2016):
Numbering of substitutions follows the chain as printed. Ends that are not written are not given here.

T1: human GIP receptor (human, UniProt P48546 22-466)
T1 sequence (looked up): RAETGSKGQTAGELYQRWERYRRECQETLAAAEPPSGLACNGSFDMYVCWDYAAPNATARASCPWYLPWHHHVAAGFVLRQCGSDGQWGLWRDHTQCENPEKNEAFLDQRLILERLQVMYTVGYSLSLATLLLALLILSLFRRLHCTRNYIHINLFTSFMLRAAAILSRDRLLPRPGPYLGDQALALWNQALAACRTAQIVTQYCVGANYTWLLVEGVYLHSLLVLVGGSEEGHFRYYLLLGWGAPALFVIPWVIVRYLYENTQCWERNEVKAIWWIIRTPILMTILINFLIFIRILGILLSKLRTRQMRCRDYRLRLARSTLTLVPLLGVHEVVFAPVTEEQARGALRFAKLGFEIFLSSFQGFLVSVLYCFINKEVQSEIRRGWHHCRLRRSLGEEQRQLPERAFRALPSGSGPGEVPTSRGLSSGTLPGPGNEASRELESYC

B1: IP284 (Fc fusion)
chain: YSEGTFTSDYSKLLEEEAVRLFIEWLVKGPGGGGGGGGGGGGATHTCPPC
B2: IP198 (Fc fusion)
chain: HGEGTFTSDVSSYMERQAIDEFIAWLLKGGAAAGGSGSTASSGSGSATGGGGAATHTCPPCPAPEF
B3: IP285 (Fc fusion)
chain: YSEGTFTSDYSKLLEEEAVRLFIEWLVKGPGGGGGGGGGGGGGGGGGGGGGGGATHTCPPC
B4: IP256 (Fc fusion)
chain: YSEGTFTSDYSKLLEEEAVRLFIEWLLAGGHNITQGGGGGSGGGGSGGGGSGGGGSATHTCPPCPAPEF
B5: IP254 (Fc fusion)
chain: YSEGTFTSDYSKLLEEEAVRLFIEWLLAGNGTGGGGSGGGGSGGGGSGGGGSATHTCPPCPAPEF
B6: IP210 (Fc fusion)
chain: YSEGTFTSDLSKLLEEEAVRLFIEWLVKGPAAAGGSGSTASSGSGSATGGGGAATHTCPPCPAPEF
B7: IP211 (Fc fusion)
chain: B6 chain with L10Y, K12S, L13Y, L14M
B8: IP410 (Fc fusion)
chain: YSEGTFTSLYRIHKEEEAVRLFIEKLLAGGGSGGGGSGGGGSGGGGSGGGGSGGGGSGGGGSGGGGSACPPC
B9: IP290 (Fc fusion)
chain: YSEGTFTSDYSKLLEEEAVRLFIEWLVKGPGGGGGGGGGGGGGGGGGGGGACPPC
B10: IP234 (Fc fusion)
chain: YSEGTFTSDYSKLLEEEAVRLFIEWLVKGPGGGGGSATHTCPPCPAPEF
modifications: cysteine pairing not given here; also: fused to IgG1-TM Fc
B11: IP283 (Fc fusion)
chain: YSEGTFTSDYSKLLEEEAVRLFIEWLVKGPGGGGGGGATHTCPPC
B12: IP286 (Fc fusion)
chain: YSEGTFTSDYSKLLEEEAVRLFIEWLVKGPGGGGGGGGGGGGGGGGGGGGGGGGGGGATHTCPPC
B13: IP281 (Fc fusion)
chain: YSEGTFTSDYSKLLEEEAVRLFIEWLVKGPGGGGGSGGGGSGGGGSGGGGSACPPC
B14: IP239 (Fc fusion)
chain: YSEGTFTSDYSKLLEEEAVRLFIEWLVKGPAAAGGSGSTASSGSGSATGGGGAACPPCPAPEF
B15: IP255 (Fc fusion)
chain: YSEGTFTSDYSKLLEEEAVRLFIEWLKNGTGGGGGSGGGGSGGGGSGGGGSATHTCPPCPAPEF
B16: IP265 (Fc fusion)
chain: B15 chain with K27V, N28K, T30P, G32K
B17: IP252 (Fc fusion)
chain: YSEGTFTSDYSKLLEEEAVRLFIEWLVKGPGGGGGSGGGGSGGGGSAESKYGPPCPPCPAPEAA
B18: IP172 (Fc fusion)
chain: HGEGTFTSDVSSYMERQAIDEFIAWLLAGAAAGGSGSTASSGSGSATGGGGAATHTCPPCPAPEF
B19: IP229 (Fc fusion)
chain: YSEGTFTSDYSKLLEEEAVRLFIEWLLAGAAAGGSGSTASSGSGSATGGGGAATHTCPPCPAPEF
B20: IP206 (Fc fusion)
chain: B2 chain with R16A, A18S, D20R, L27V, G30P, A32P, A33P
B21: IP175 (Fc fusion)
chain: B18 chain with R16S, A18L, I19V, D20R, L27V, A28K
B22: IP215 (Fc fusion)
chain: B18 chain with R16S, A18L, I19V, L27V, A28K
B23: IP214 (Fc fusion)
chain: B18 chain with R16A, A18K, L27V, A28K, A31P, A32P

Each binder was assayed against T1, human GIP receptor (assay: cell-based or functional assay).

| Binder | cAMP EC50 | cAMP EC50, hGIPr (C3) line |
| --- | --- | --- |
| B1 | 0.039 nM | – |
| B2 | 6.3 nM | – |
| B3 | 0.0087 nM | – |
| B4 | 0.037 nM | – |
| B5 | 0.026 nM | – |
| B6 | 0.019 nM | – |
| B7 | 0.5 nM | – |
| B8 | – | > 7.99 nM |
| B9 | 0.018 nM | – |
| B10 | 0.043 nM | – |
| B11 | 0.049 nM | – |
| B12 | 0.008 nM | – |
| B13 | 0.014 nM | – |
| B14 | 0.008 nM | – |
| B15 | 0.07 nM | – |
| B16 | 0.015 nM | – |
| B17 | 0.024 nM | – |
| B18 | 16 nM | – |
| B19 | 0.0062 nM | – |

The binders below were run against human GLP-1 receptor (human, UniProt P43220 24-463) (assay: cell-based or functional assay).

| Binder | cAMP EC50 |
| --- | --- |
| B1 | 0.2 nM |
| B2 | 0.042 nM |
| B20 | 0.084 nM |
| B3 | 0.076 nM |
| B4 | 0.4 nM |
| B5 | 0.53 nM |
| B6 | 0.18 nM |
| B7 | 0.23 nM |
| B8 | > 7.99 nM |
| B9 | 0.14 nM |
| B10 | 0.74 nM |
| B11 | 0.56 nM |
| B12 | 0.072 nM |
| B13 | 0.087 nM |
| B14 | 0.088 nM |
| B15 | 0.22 nM |
| B16 | 0.1 nM |
| B17 | 0.19 nM |
| B18 | 0.057 nM |
| B21 | 0.051 nM |
| B22 | 0.05 nM |
| B23 | 0.075 nM |
| B19 | 0.15 nM |

What follows are binders tested against human glucagon receptor (human, UniProt P47871 26-477) (assay: cell-based or functional assay).

| Binder | cAMP EC50 |
| --- | --- |
| B1 | 18000 nM |
| B3 | 1600 nM |
| B4 | > 420 nM |
| B5 | 160 nM |
| B8 | > 7.99 nM |
| B9 | > 2590 nM |
| B10 | > 15000 nM |
| B11 | > 17000 nM |
| B12 | 920 nM |
| B13 | 3800 nM |
| B14 | > 990 nM |
| B15 | > 4600 nM |
| B16 | > 13000 nM |
| B17 | > 3200 nM |
| B18 | > 15000 nM |
| B19 | 28 nM |
